Source: publication PMC7054389, “Genome-Wide Analysis of the Glucose-6-Phosphate Dehydrogenase Family in Soybean and Functional Identification of GmG6PDH2 Involvement in Salt Stress” (Frontiers in Plant Science, 2020)

Substrate: NC(=O)c1ccc[n+]([C@@H]2O[C@H](COP(=O)(O)OP(=O)(O)OC[C@H]3O[C@@H](n4cnc5c(N)ncnc54)[C@H](OP(=O)(O)O)[C@@H]3O)[C@@H](O)[C@H]2O)c1
Experiment: NADP+ reduction, Eadie-Hofstee plot, crude E. coli extract
Format: biochemical, Glycine max
Details: co-substrate G6P, assay as for plant extracts: 50 mM Hepes-Tris pH 7.8, 3.3 mM MgCl2

B1: GmG6PDH2 (Glycine max) (protein)
chain: MGTSEWHIERRSSFGTESPLAREAGNVPETGSLSIVVLGASGDLAKKKTFPALFHLYRQGFLPADEVHIFGYARTKISDDELRNRLRGYLVPNKGASPQLLEDVEKFLQLIKYVSGSYDSEDGFRLLDKEISEHEYLKKSVEGLSRRLFYLALPPSVYPSVCKMIKTCCMNKSDLGGWTRVVVEKPFGKDLESAEELSTEIGKLFEEPQIYRIDHYLGKELVQNLLVLRFANRFFLPLWNRDNIDNVQIVFREDFGTDGRGGYFDQYGIIRDIIQNHLLQVLCLVAMEKPVSLRPEHIRDEKVKVLESVLPIRDDEVVLGQYEGYKDDPTVPDKSNTPTFATVILRIHNERWEGVPFILKAGKALNSRKAEIRVQFKDVPGDIFKCKKQGRNEFVIRLQPLEAMYMKLTVKQPGLEMSTVQSELDLSYGQRYQGVTIPEAYERLILDTIKGDQQHFVRRDELKASWQIFTPLLHRIDEGEFKPLPYKPGSRGPAEADQLLEKAGYVQTHGYIWIPPTL
notes: full-length CDS in pET32a(+), His-tagged, E. coli Rosetta; crude lysate supernatant, not purified
- Km: 0.033 mM
